First the molecules themselves.
B1: TCR R42P3A9 (TCR, V domains shown)
V domain 1: GIQVEQSPPDLILQEGANSTLRCNFSDSVNNLQWFHQNPWGQLINLFYIPSGTKQNGRLSATTVATERYSLLYISSSQTTDSGVYFCAVHNFNKFYFGSGTKLNVKP
V domain 2: AAGVIQSPRHLIKEKRETATLKCYPIPRHDTVYWYQQGPGQDPQFLISFYEKMQSDKGSIPDRFSAQQFSDYHSELNMSSLELGDSALYFCASSLLGQGYNEQFFGPGTRLTVLE
B2: TCR R26P1A9 (TCR, V domains shown)
V domain 1: SQQGEEDPQALSIQEGENATMNCSYKTSINNLQWYRQNSGRGLVHLILIRSNEREKHSGRLRVTLDTSKKSSSLLITASRAADTASYFCLIGASGSRLTFGEGTQLTVNP
V domain 2: DAGVIQSPRHEVTEMGQEVTLRCKPISGHDYLFWYRQTMMRGLELLIYFNNNVPIDDSGMPEDRFSAKMPNASFSTLKIQPSEPRDSAVYFCASSYFGWNEKLFFGSGTQLSVLE
B3: TCR R26P2A6 (TCR, V domains shown)
V domain 1: QKEVEQDPGPLSVPEGAIVSLNCTYSNSAFQYFMWYRQYSRKGPELLMYTYSSGNKEDGRFTAQVDKSSKYISLFIRDSQPSDSATYLCAMSDVSGGYNKLIFGAGTRLAVHP
V domain 2: EAQVTQNPRYLITVTGKKLTVTCSQNMNHEYMSWYRQDPGLGLRQIYYSMNVEVTDKGDVPEGYKVSRKEKRNFPLILESPSPNQTSLYFCASTTPDGTDEQFFGPGTRLTVLE
B4: TCR R37P1H1 (TCR, V domains shown)
V domain 1: AQTVTQSQPEMSVQEAETVTLSCTYDTSESNYYLFWYKQPPSRQMILVIRQEAYKQQNATENRFSVNFQKAAKSFSLKISDSQLGDTAMYFCAFGYSGGGADGLTFGKGTHLIIQP
V domain 2: DAGVTQSPTHLIKTRGQQVTLRCSPKSGHDTVSWYQQALGQGPQFIFQYYEEEERQRGNFPDRFSGHQFPNYSSELNVNALLLGDSALYLCASSNEGQGWEAEAFFGQGTRLTVVE
B5: TCR R59P2E7 (TCR, V domains shown)
V domain 1: KQEVTQIPAALSVPEGENLVLNCSFTDSAIYNLQWFRQDPGKGLTSLLLIQSSQREQTSGRLNASLDKSSGRSTLYIAASQPGDSATYLCAVNSDYKLSFGAGTTVTVRA
V domain 2: AAGVIQSPRHLIKEKRETATLKCYPIPRHDTVYWYQQGPGQDPQFLISFYEKMQSDKGSIPDRFSAQQFSDYHSELNMSSLELGDSALYFCASSLGLGTGDYGYTFGSGTRLTVVE

In the test the target is HLA-A*02-presented MAGEA1-003 (on target cells) (human). Kind of test: cell-based or functional assay.
With B1, the “EC50 of IFNγ release, T2 cells loaded with titrated MAGEA1-003 peptide” value was found to be 823 nM.
To B2 belongs 6 nM; to B3, 100 nM; to B4, 26 nM.
To B5 belongs 386 nM.

Values taken from patent US20190321478A1 (IMMATICS BIOTECHNOLOGIES, published 2019).
